Consider two variants from IntAct's records for PubMed 16330715.

First the molecules themselves.
B1: Neutrophil cytosol factor 1 (Homo sapiens), P14598 (parent)
chain: MGDTFIRHIALLGFEKRFVPSQHYVYMFLVKWQDLSEKVVYRRFTEIYEFHKTLKEMFPIEAGAINPENRIIPHLPAPKWFDGQRAAENRQGTLTEYCSTLMSLPTKISRCPHLLDFFKVRPDDLKLPTDNQTKKPETYLMPKDGKSTATDITGPIILQTYRAIANYEKTSGSEMALSTGDVVEVVEKSESGWWFCQMKAKRGWIPASFLEPLDSPDETEDPEPNYAGEPYVAIKAYTAVEGDEVSLLEGEAVEVIHKLLDGWWVIRKDDVTGYFPSMYLQKSGQDVSQAQRQIKRGAPPRRSSIRNAHSIHQRSRKRLSQDAYRRNSVRFLQQRRRQARPGPQSPGSPLEEERQTQRSKPQPAVPPRPSADLILNRCSESTKRKLASAV

Variants of B1 are the subject of this test. To be noted: with fak2_human PTK2B.
On to S303D;S304D;S328D, for which the “effect of a mutation on the interaction” value was “increasing interaction strength”.

For the variant W193R, the “effect of a mutation on the interaction” value is “disrupting interaction strength”.
